Experimental data: patent US20250206839A1, “METHODS, COMPOSITIONS AND USES FOR SEMA7A MONOCLONAL ANTIBODIES” (THE REGENTS OF THE UNIVERSITY OF COLORADO, A BODY CORPORATE, priority 2022, published 2025)

Molecular target: T1, purified SEMA7A (Homo sapiens, UniProt O75326)
T1 construct: Fc; made in house; host or cells: cells stably transfected with SEMA7A-Fc plasmid (human breast cancer cells); purified from medium
T1 sequence (O75326 45-648 limits assumed): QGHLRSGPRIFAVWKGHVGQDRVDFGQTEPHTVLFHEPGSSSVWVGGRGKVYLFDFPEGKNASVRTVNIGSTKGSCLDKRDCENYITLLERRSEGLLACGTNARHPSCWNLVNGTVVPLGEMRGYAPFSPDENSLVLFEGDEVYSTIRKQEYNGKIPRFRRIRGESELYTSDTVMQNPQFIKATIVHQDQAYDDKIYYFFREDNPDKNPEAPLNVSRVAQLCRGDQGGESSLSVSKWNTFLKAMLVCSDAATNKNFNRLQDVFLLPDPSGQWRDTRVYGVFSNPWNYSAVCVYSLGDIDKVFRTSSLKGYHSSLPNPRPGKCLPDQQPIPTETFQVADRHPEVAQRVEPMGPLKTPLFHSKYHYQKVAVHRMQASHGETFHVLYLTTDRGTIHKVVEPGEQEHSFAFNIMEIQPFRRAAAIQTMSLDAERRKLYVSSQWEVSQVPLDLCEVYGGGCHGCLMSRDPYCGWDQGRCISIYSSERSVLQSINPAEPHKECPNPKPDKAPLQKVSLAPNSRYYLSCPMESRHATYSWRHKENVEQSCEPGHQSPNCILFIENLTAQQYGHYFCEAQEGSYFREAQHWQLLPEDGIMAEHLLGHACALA
Assay: ELISA binding to purified SEMA7A
Experimental: The MultiSorp ELISA 96 well ELISA plate (Thermo Scientific) was coated with 100 μl per well of 50 μg/ml of purified SEMA7A in Coating Buffer A (Thermo Scientific CB07100) and allowed to attach overnight with gentle rocking at 4 degrees. For the peptide competition, half of the antibody was incubated in an Eppendorf tube overnight at a ratio of 1:10 with the SEMA7A peptide on a rotator at 4 degrees. The plate was washed with 200 μl per well of 1× wash buffer (Thermo Scientific WB01) and blocked with 200 μl 1× assay buffer (Thermo Scientific DS98200) for 2 hours and room temp with gentle rocking. 1× assay buffer was removed and a 200 μl serial dilution of SMEA7A mAb in 1× assay buffer was made from columns 1 through 9, with column 10-12 getting 1× assay buffer only. The plate was incubated overnight with gentle rocking at 4 degrees. The plate was washed twice with 200 μl of 1× wash buffer. 100 μl of 200 ng/ml Goat Anti-Mouse IgG HRP (Abcam 97040) in 1× assay buffer was added to columns 1-11, with column 12 getting 1× assay buffer only. The plate was incubated for 2 hours with gentle rocking at room temp. The plate was washed four times with 200 μl 1× wash buffer. 150 μl SuperSignal Femto for ELISA (Thermo Scientific) was mixed 1:1 added to each well and mixed for 1 min and then left to rock at room temperature for 30 minutes. The absorbance was read at 425 nm on a microplate reader.

B1: recombinant anti-SEMA7A monoclonal antibody: recombinant anti-SEMA7A monoclonal antibody; illustrative recombinant heavy chain SEQ ID NO: 28, light chain SEQ ID NO: 29 (antibody)
heavy: EVQLQQSGTVLARPGASVKMSCKASGYSFTSYWMHWVKQRPGQGLEWIGAIYPGNSDTSYNQKFKGKAKLTAVTSASTAYMELSSLTNEDSAVYYCTRGGAPTMITAYYAMDYWGQGTSVTVSSAKTTPPSVYPLAPGSAAQTNSMVTLGCLVKGYFPEPVTVTWNSGSLSSGVHTFPAVLQSDLYTLSSSVTVPSSTWPSETVTCNVAHPASSTKVDKKIVPRDCGCKPCICTVPEVSSVFIFPPKPKDVLTITLTPKVTCVVVDISKDDPEVQFSWFVDDVEVHTAQTQPREEQFNSTFRSVSELPIMHQDWLNGKEFKCRVNSAAFPAPIEKTISKTKGRPKAPQVYTIPPPKEQMAKDKVSLTCMITDFFPEDITVEWQWNGQPAENYKNTQPIMDTDGSYFVYSKLNVQKSNWEAGNTFTCSVLHEGLHNHHTEKSLSHSPGK
light: DIQMTQTTSSLSASLGDRVTISCRASQDISNYLNWYQQKPDGTVKLLIYYTSRLHSGVPSRFSGSGSGTDYSLTISNLEQEDIATYFCQQGNTLPWTFGGGTKLEIKRADAAPTVSIFPPSSEQLTSGGASVVCFLNNFYPKDINVKWKIDGSERQNGVLNSWTDQDSKDSTYSMSSTLTLTKDEYERHNSYTCEATHKTSTSPIVKSFNRNEC
binding to purified SEMA7A in presence of immunizing peptide (10× immunizing peptide): blocked this ability | binding to purified SEMA7A (serial dilution): bound to purified SEMA7A in a dose dependent manner
